US20240262910A1 (Memorial Sloan Kettering, published 2024)

T1: mouse CD33 extracellular domain with 6xHis-tag (mouse, UniProt Q63994 18-240)
T1 construct: range 18-240; also called moCD33-His; moCD33(ECD)-His
T1 sequence: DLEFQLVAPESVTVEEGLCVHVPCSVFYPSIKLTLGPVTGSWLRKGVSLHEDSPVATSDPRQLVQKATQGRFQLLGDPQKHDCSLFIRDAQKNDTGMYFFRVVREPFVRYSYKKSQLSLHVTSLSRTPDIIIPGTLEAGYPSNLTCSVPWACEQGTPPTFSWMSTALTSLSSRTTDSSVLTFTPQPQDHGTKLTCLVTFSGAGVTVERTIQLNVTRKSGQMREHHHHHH


Key:
[1] = target: T2, human CD33, full length, on cells (human, UniProt P20138 18-364); assay: flow cytometry, U937 cells
T2 construct: NIH-3T3 cells stably overexpressing full-length human CD33, or AML lines U937 and Set2 with endogenous CD33; the cell line is named under assay; also called 3T3-huCD33; 3T3-CD33
Description: (§1) Binding to CD33 on Cells. To assess the binding of TDI-Y-006, TDI-Y-007 and 1J19 to cell surface-bound CD33, 3T3 cells overexpressing CD33, as well as the U937 AML cell line, which expresses endogenous CD33, were used. U937 CD33KO or NALM6 were included as negative controls. Briefly, NALM6, U937 CD33+ and KO cells were blocked with human IgG Fc for 20 minutes on ice. The recombinant antibodies were then serially diluted starting at 100 μg/mL concentration and added for 30 minutes on ice. AlexaFluor 647-conjugated goat anti-human F(ab′)2 was added to cells for 30 minutes on ice, washed and analyzed by flow cytometry, normalized to secondary only staining (MFI ratio). EC50 values were determined by non-linear regression.

[2] = target: T2, human CD33, full length, on cells; assay: flow cytometry, 3T3-CD33 cells
Description: as §1

[3] = target: T3, human CD33 extracellular domain with 6xHis-tag (human, UniProt P20138 18-259); assay: BLI, huCD33-His on anti-penta-His sensor, no competitor
T3 construct: Bought (R&D Systems, Acro Biosystems); also called huCD33-His; huCD33(ECD)-His
Description: Epitope Binning. Epitope binning was carried out by a BLI competition experiment using an Octet Red96e. Human CD33-His was captured by an anti-penta-His biosensor. A 4×4 matrix with TDI-Y-006, TDI-Y-007, 1J19 and H195 was tested. A reference biosensor was used to determine the overall capture level for each antibody. After pre-binding the antibodies at saturation levels, the biosensors were dipped into antibody solutions to assess competition. […] However, when TDI-Y-006 was pre-bound, binding of TDI-Y-007 was blocked. […] Similarly, 1J19 and H195 have epitopes that partially overlap. No competition was observed between antibodies binding to the membrane-proximal IgC2 domain (TDI-Y-006 and TDI-Y-007) and antibodies binding to the membrane-distal IgV domain (1J19 and H195).

[4] = target: T3, human CD33 extracellular domain with …; assay: BLI (Octet Red96e), antibody on anti-huFc sensor, huCD33-His as analyte, 1:1 fit
Description: (§2) The binding affinity to human CD33 protein was measured by biolayer interferometry (BLI) using an Octet Red96e. All experiments were carried out using kinetic buffer (PBS pH 7.4, 0.01% BSA, 0.002% Tween-20). The antibodies were captured by an anti-huFc biosensor and a 7-point, 2-fold dilution series of huCD33-His was used as analyte. The data was processed by double reference subtraction, and response curves were globally fit to a 1:1 Langmuir binding model. […] The binding affinities are similar to the H195 reference antibody.

[5] = target: T2, human CD33, full length, on cells; assay: summary table; flow cytometry, AML cell line U937; U937 AML cell line (endogenous CD33)
Description: as §1

[6] = target: T2, human CD33, full length, on cells; assay: summary table; flow cytometry, 3T3 cells overexpressing CD33; 3T3 cells overexpressing CD33
Description: as §1

[7] = target: T1, mouse CD33 extracellular domain with …; assay: ELISA: CD33-His protein at 5 µg/mL captured on Ni-NTA plate, antibody at 10 µg/mL in triplicate, HRP anti-human Fc detection, OD450
Description: Binding to Recombinant CD33 Protein. Binding to CD33 protein was carried out by ELISA using human CD33-His (full-length or IgC2 domain), cynomolgus monkey CD33-His and mouse CD33-His. Recombinant proteins at 5 μg/mL were captured by pre-blocked Ni-NTA plates. Candidate antibodies were added at 10 μg/mL in triplicate and detected using horseradish peroxidase (HRP)-conjugated anti-human Fc antibody. […] No binding was detected to cynomolgus or mouse CD33 for either TDI-Y-006 and TDI-Y-007. 1J19 and H195 only bound to full-length human CD33 ECD but not to IgC2 as these antibodies target the IgV domain.

[8] = target: T2, human CD33, full length, on cells; assay: flow cytometry on 3T3 cells overexpressing human CD33, antibody titration, AlexaFluor 647 goat anti-human F(ab')2 detection, MFI ratio to secondary only
Description: as §1

[9] = target: T3, human CD33 extracellular domain with …; assay: ELISA, hybridoma supernatant
[10] = target: T4, human CD33 IgC2 type domain with 6xHis-tag (human, UniProt P20138 140-259); assay: ELISA, hybridoma supernatant
T4 construct: Produced at LakePharma; also called huCD33IgC2-His; CD33 IgC2-6xHis

[11] = target: T2, human CD33, full length, on cells; assay: flow cytometry, purified mAb, Set2 cells
[12] = target: T2, human CD33, full length, on cells; assay: flow cytometry, purified mAb, U937 cells
[13] = target: T2, human CD33, full length, on cells; assay: flow cytometry, hybridoma supernatant, U937 cells
[14] = target: T2, human CD33, full length, on cells; assay: flow cytometry, hybridoma supernatant, 3T3-huCD33 cells
[15] = target: T5, human CD33 IgC2 domain only, on NIH-3T3 cells (human, UniProt P20138 140-364); assay: flow cytometry, hybridoma supernatant, 3T3-huCD33IgC2 cells
T5 construct: the whole entry is named here; also called 3T3-huCD33IgC2; 3T3 CD33-IgC2

[16] = target: T1, mouse CD33 extracellular domain with …; assay: ELISA on recombinant moCD33-His, purified hybridoma subclone antibody, readout RLU; antibody concentration not given
[17] = target: T3, human CD33 extracellular domain with …; assay: summary table; binding affinity to soluble CD33 (BLI)
Description: as §2

[18] = target: T2, human CD33, full length, on cells; assay: summary table; flow cytometry, 3T3 cells overexpressing CD33
Description: as §1

T2 sequence (P20138 18-364): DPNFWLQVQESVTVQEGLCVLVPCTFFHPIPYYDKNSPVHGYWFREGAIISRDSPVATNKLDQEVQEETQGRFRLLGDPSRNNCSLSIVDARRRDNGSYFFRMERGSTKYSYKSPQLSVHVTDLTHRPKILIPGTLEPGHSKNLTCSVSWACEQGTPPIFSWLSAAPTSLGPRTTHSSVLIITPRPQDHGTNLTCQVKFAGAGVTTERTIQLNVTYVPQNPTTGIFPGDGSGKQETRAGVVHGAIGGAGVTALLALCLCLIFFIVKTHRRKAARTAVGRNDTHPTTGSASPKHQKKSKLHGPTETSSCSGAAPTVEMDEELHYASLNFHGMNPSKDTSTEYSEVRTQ
T3 sequence (P20138 other isoform, or with tags, fused parts or gaps): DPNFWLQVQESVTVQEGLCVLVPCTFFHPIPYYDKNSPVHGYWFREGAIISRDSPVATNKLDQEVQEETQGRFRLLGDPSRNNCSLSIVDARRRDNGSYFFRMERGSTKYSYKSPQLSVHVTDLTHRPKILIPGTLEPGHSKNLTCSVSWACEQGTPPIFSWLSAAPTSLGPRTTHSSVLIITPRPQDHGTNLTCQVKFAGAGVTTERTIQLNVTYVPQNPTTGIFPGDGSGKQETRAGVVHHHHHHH
T5 sequence (P20138 140-364 limits assumed): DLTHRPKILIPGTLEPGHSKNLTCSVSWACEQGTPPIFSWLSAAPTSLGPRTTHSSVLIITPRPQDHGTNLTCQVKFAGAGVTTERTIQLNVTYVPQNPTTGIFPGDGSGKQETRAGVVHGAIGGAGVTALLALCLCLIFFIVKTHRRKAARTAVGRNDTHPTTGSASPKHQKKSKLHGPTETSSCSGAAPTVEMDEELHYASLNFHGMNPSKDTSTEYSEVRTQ
T4 sequence (P20138 other isoform, or with tags, fused parts or gaps): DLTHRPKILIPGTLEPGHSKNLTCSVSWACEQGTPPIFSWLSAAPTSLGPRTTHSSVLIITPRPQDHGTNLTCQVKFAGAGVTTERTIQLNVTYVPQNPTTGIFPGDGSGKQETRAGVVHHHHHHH

Row | EC50 [1] | EC50 [2] | BLI total binding capacity (Reference Biosensor) [3] | Kd [4] | kon [4] | EC50 [5] | binding result [7] | EC50 (read off the curve) [8] | RLU [9] | RLU [10] | EC50 [11] | EC50 [12] | MFI [13] | MFI [14] | MFI [15] | Binder | further results
1 | 44.9 nM | 17 nM | 0.299 | 1.29 nM | 464000 M⁻¹ s⁻¹ | 45 nM | no binding (tested: 10 µg/mL) | ~40 nM |  |  |  |  |  |  |  | TDI-Y-007 (antibody, V domains shown, also called 4B2 (recombinant, human IgG1 constant region)) VH: EVHLLESGGGLVQPGGSLRLSCAASGFIFSSNAMSWVRQAPGKGLEWVSAISGYGGNTYYADSVKGRFTISRDNSKNTLYLQMNSLRAEDTAVYYCAKWGTYIVGATGDYWGQGTLVTVSS VL: QSALTQPPSASGSPGQSVTISCTGTSNDVGGYNYVSWYQQHPGKAPKLLIYEVSKRPSGVPDRFSGSQSGNTASLTVSGLQAEDEADYYCSSYAGSNNWVFGGGTKLTVL | koff [4]: 0.000597 s⁻¹; EC50 [6]: 17 nM
2 | 8.5 nM | 5 nM | 0.86 | 1.21 nM | 296000 M⁻¹ s⁻¹ | 8.5 nM | no binding (tested: 10 µg/mL) | ~8 nM |  |  |  |  |  |  |  | TDI-Y-006 (antibody, V domains shown, also called 3P14 (recombinant, human IgG1 constant region)) VH: EVQLLESGGGLVQPGGSLRLSCAASGFTFSTYAMSWVRQAPGKGLEWVSAISGRGGSTYYTDSVKGRFTISRDNSKNTVSLQMNSLRAEDTAVYYCAGRGDYYYYYGMDVWGQGTTVTVSA VL: DIVMTQSPLSSPVTLGQPASFSCRSSQSLVYSDGNTYLSWLQQRPGQPPRLLIYKISNRFSGVPDRFSGSGAGTDFTLKISRVEAEDVGVYYCMQSTQFPHTFGQGTKLEIK | Kd [17]: 1.2 nM; koff [17]: 0.000359 s⁻¹; kon [17]: 296000 M⁻¹ s⁻¹; EC50 [18]: 5 nM

Second part, the binder before the results:

Row | Binder | EC50 [1] | EC50 [2] | BLI total binding capacity (Reference Biosensor) [3] | Kd [4] | kon [4] | EC50 [5] | binding result [7] | EC50 (read off the curve) [8] | RLU [9] | RLU [10] | EC50 [11] | EC50 [12] | MFI [13] | MFI [14] | MFI [15] | further results
3 | 4-B2 (hybridoma antibody) (antibody, V domains shown, AlivaMab mouse hybridoma antibody; also called 4-B2-A) VH: EVHLLESGGGLVQPGGSLRLSCAASGFIFSSNAMSWVRQAPGKGLEWVSAISGYGGNTYYADSVKGRFTISRDNSKNTLYLQMNSLRAEDTAVYYCAKWGTYIVGATGDYWGQGTLVTVSS VL: QSALTQPPSASGSPGQSVTISCTGTSNDVGGYNYVSWYQQHPGKAPKLLIYEVSKRPSGVPDRFSGSQSGNTASLTVSGLQAEDEADYYCSSYAGSNNWVFGGGTKLTVL |  |  |  |  |  |  |  |  | 392000 RLU | 101000 RLU | 28.5 nM | 40.5 nM | 152000 MFI | 2.82e+06 MFI | 358000 MFI | binding result [16]: no binding
4 | 3-P14 (hybridoma antibody) (antibody, V domains shown, AlivaMab mouse hybridoma antibody; also called 3-P14-A) VH: EVQLLESGGGLVQPGGSLRLSCAASGFTFSTYAMSWVRQAPGKGLEWVSAISGRGGSTYYTDSVKGRFTISRDNSKNTVSLQMNSLRAEDTAVYYCAGRGDYYYYYGMDVWGQGTTVTVSA VL: DIVMTQSPLSSPVTLGQPASFSCRSSQSLVYSDGNTYLSWLQQRPGQPPRLLIYKISNRFSGVPDRFSGSGAGTDFTLKISRVEAEDVGVYYCMQSTQFPHTFGQGTKLEIK |  |  |  |  |  |  |  |  | 546000 RLU | 107000 RLU | 2.4 nM | 3.27 nM | 248000 MFI | 3.06e+06 MFI | 544000 MFI | 
